Patent US20240252614A1 (Pfizer, published 2024)

Key:
[1] = biological target: T1, hMPV126 (hMPV B, UniProt Q6WB98 19-102); experiment: BLI, 63C stress
T1 construct: T49I, T150C-R156C, G239A, A459P
Protocol: (§1) Conformation integrity of hMPV B F protein mutants were evaluated by a thermal stress experiment. Crude cell culture supernatants were normalized based on the results of the titer quantitation and then incubated for 1 hour at room temperature and two higher temperatures. For the testing of hMPV B single mutants, the two temperatures were 53° C. and 56° C. After the incubation, the protein mutants were probed with prefusion specific monoclonal antibody hMPV-2 by OCTET HTX. Anti-Human IgG Fc Capture (AHC) biosensors were first equilibrated in PB before being dipped into more PB for to establish the initial baseline. Biosensors were incubated with hMPV-2 before being equilibrated in PB to establish the experimental baseline. The mAb-bound biosensors were then dipped into the thermal stresses cell culture supernatants for 5 minutes.

[2] = biological target: T2, hMPV142 (hMPV B, UniProt Q6WB98 19-102); experiment: BLI, 63C stress
T2 construct: L141C-A161C, S149T, A459P
Protocol: as §1

[3] = biological target: T3, hMPV127 (hMPV B, UniProt Q6WB98 19-102); experiment: BLI, 63C stress
T3 construct: A140C-S149C, G239A, T411C-Q434C, A459P
Protocol: as §1

[4] = biological target: T4, hMPV124 (hMPV B, UniProt Q6WB98 19-102); experiment: BLI, 63C stress
T4 construct: L141C-A161C, T411C-Q434C, A459P
Protocol: as §1

[5] = biological target: T5, hMPV119 (hMPV B, UniProt Q6WB98 19-102); experiment: BLI, 63C stress
T5 construct: T49I, T150C-R156C, A459P
Protocol: as §1

[6] = biological target: T6, hMPV136 (hMPV B, UniProt Q6WB98 19-102); experiment: BLI, 63C stress
T6 construct: A140C-S149C, A459P
Protocol: as §1

[7] = biological target: T7, hMPV118 (hMPV B, UniProt Q6WB98 19-102); experiment: BLI, 63C stress
T7 construct: T49I, T150C-R156C
Protocol: as §1

[8] = biological target: T8, hMPV125 (hMPV B, UniProt Q6WB98 19-102); experiment: BLI, 63C stress
T8 construct: L141C-A161C, G239A, T411C-Q434C
Protocol: as §1

[9] = biological target: T9, hMPV138 (hMPV B, UniProt Q6WB98 19-102); experiment: BLI, 63C stress
T9 construct: T49I, A140C-S149C, A459P
Protocol: as §1

[10] = biological target: T10, hMPV140 (hMPV B, UniProt Q6WB98 19-102); experiment: BLI, 63C stress
T10 construct: T49I, L141C-A161C, T411C-Q434C, A459P
Protocol: as §1

[11] = biological target: T11, hMPV139 (hMPV B, UniProt Q6WB98 19-102); experiment: BLI, 63C stress
T11 construct: T49I, L141C-A161C, T411C-Q434C
Protocol: as §1

[12] = biological target: T12, hMPV144 (hMPV B, UniProt Q6WB98 19-102); experiment: BLI, 63C stress
T12 construct: T49I, L141C-A161C, S149T, A459P
Protocol: as §1

[13] = biological target: T13, hMPV123 (hMPV B, UniProt Q6WB98 19-102); experiment: BLI, 63C stress
T13 construct: A140C-S149C, G239A, T411C-Q434C
Protocol: as §1

[14] = biological target: T14, hMPV120 (hMPV B, UniProt Q6WB98 19-102); experiment: BLI, 63C stress
T14 construct: A140C-S149C, T411C-Q434C
Protocol: as §1

[15] = biological target: T15, hMPV130 (hMPV B, UniProt Q6WB98 19-102); experiment: BLI, 63C stress
T15 construct: L141C-A161C, G239A, T411C-Q434C, A459P
Protocol: as §1

[16] = biological target: T16, hMPV121 (hMPV B, UniProt Q6WB98 19-102); experiment: BLI, 63C stress
T16 construct: L141C-A161C, T411C-Q434C
Protocol: as §1

[17] = biological target: T17, hMPV129 (hMPV B, UniProt Q6WB98 19-102); experiment: BLI, 63C stress
T17 construct: T49I, A140C-S149C, G239A, T365I, T411C-Q434C, A459P
Protocol: as §1

[18] = biological target: T18, hMPV117 (hMPV B, UniProt Q6WB98 19-102); experiment: BLI, 63C stress
T18 construct: T150C-R156C, A459P
Protocol: as §1

[19] = biological target: T19, hMPV131 (hMPV B, UniProt Q6WB98 19-102); experiment: BLI, 63C stress
T19 construct: T49I, L141C-A161C, G239A, T411C-Q434C, A459P
Protocol: as §1

[20] = biological target: T20, hMPV133 (hMPV B, UniProt Q6WB98 19-102); experiment: BLI, 63C stress
T20 construct: T49I, L141C-A161C, S149T, G239A, T411C-Q434C, A459P
Protocol: as §1

[21] = biological target: hMPV B F WT Control (hMPV B, UniProt Q6WB98 19-102); experiment: BLI, 63C stress
Protocol: as §1

[22] = biological target: T21, hMPV122 (hMPV B, UniProt Q6WB98 19-102); experiment: BLI, 63C stress
T21 construct: A140C-S149C, T411C-Q434C, A459P
Protocol: as §1

[23] = biological target: T22, hMPV054 (hMPV A, UniProt Q6WB98 19-102); experiment: BLI, 53C stress
T22 construct: S132P
Protocol: (§2) The OCTET HTX (Sartorius, Gottingen, Germany) instrument was used to evaluate the expression and conformational integrity for each mutant. All measurements were conducted at 30° C. temperature in 96-well black plates (Corning, Corning, NY) with a final volume of 240 μL per well at a constant agitation rate of 1000 RPM.
(§3) Conformation integrity of hMPV A F protein mutants were evaluated by thermal stress experiments. Crude cell culture supernatants were normalized based on the results of the titer quantitation and then incubated for 1 hour at room temperature and two higher temperatures. […] Anti-Human IgG Fc Capture (AHC) biosensors were first equilibrated in PB before being dipped into more PB to establish the initial baseline. […] The mAb-bound biosensors were then dipped into the thermal stressed cell culture supernatants for 5 minutes. The kinetics analysis was done by OCTET data analysis software (version 12.0, Sartorius) based on curve fitting of the entire associate step.

[24] = biological target: T23, hMPV069 (hMPV A, UniProt Q6WB98 19-102); experiment: BLI, 53C stress
T23 construct: S291I
Protocol: as §2, §3

[25] = biological target: T24, hMPV061 (hMPV A, UniProt Q6WB98 19-102); experiment: BLI, 53C stress
T24 construct: G106A
Protocol: as §2, §3

[26] = biological target: hMPV A F WT Control (hMPV A, UniProt Q6WB98 19-102); experiment: BLI, 53C stress
Protocol: as §2, §3

[27] = biological target: T25, hMPV047 (hMPV A, UniProt Q6WB98 19-102); experiment: BLI, 53C stress
T25 construct: L141C-A159C
Protocol: as §2, §3

[28] = biological target: T26, hMPV059 (hMPV A, UniProt Q6WB98 19-102); experiment: BLI, 53C stress
T26 construct: V449P
Protocol: as §2, §3

[29] = biological target: T27, hMPV050 (hMPV A, UniProt Q6WB98 19-102); experiment: BLI, 53C stress
T27 construct: V148C-L158C
Protocol: as §2, §3

[30] = biological target: T28, hMPV045 (hMPV A, UniProt Q6WB98 19-102); experiment: BLI, 53C stress
T28 construct: I137C-A159C
Protocol: as §2, §3

[31] = biological target: T29, hMPV055 (hMPV A, UniProt Q6WB98 19-102); experiment: BLI, 53C stress
T29 construct: N145P
Protocol: as §2, §3

B1: hMPV-2 mAb (antibody, V domains shown)
VH: QVQLQQSGAEVKKPGASVKVSCKASGYTFTSYGISWVRQAPGQGLEWMGWISGYNGNTNYAQTFQGTFTMTTDTSTSTAYMELRRLRSGDTAVYYCARDRYYASGSYNGMDVWGQGTTVTVSS
VL: QSALTQPPSASGAPGQRVTVSCSGSSSNVGSSSVYWYQQLPGTAPKLLIYRNNQRPSGVPDRFSGSKSGTSASLAISGLRSEDEADYYCAAWDDSLSGWVFGGGTKLTVLG
notes: human IgG1
Response Shift [1]: -0.075 nm | Response Shift [2]: 0.054 nm | Response Shift [3]: 0.696 nm | Response Shift [4]: 0.065 nm | Response Shift [5]: 0.017 nm | Response Shift [6]: -0.027 nm | Response Shift [7]: 0.028 nm | Response Shift [8]: 0.233 nm | Response Shift [9]: 0.156 nm | Response Shift [10]: 0.747 nm | Response Shift [11]: 0.456 nm | Response Shift [12]: -0.015 nm | Response Shift [13]: 0.549 nm | Response Shift [14]: 0.502 nm | Response Shift [15]: 0.079 nm | Response Shift [16]: 0.078 nm | Response Shift [17]: 0.661 nm | Response Shift [18]: 0 nm | Response Shift [19]: 0.679 nm | Response Shift [20]: 0.62 nm | Response Shift [21]: 0.017 nm | Response Shift [22]: 0.665 nm | Response Shift [23]: -0.072 nm | Response Shift [24]: -0.005 nm | Response Shift [25]: -0.073 nm | Response Shift [26]: -0.026 nm | Response Shift [27]: -0.079 nm | Response Shift [28]: -0.051 nm | Response Shift [29]: -0.032 nm | Response Shift [30]: -0.048 nm | Response Shift [31]: -0.073 nm
